Reference: paper PMC11676761, “Mining and Characterization of Amylosucrase from Calidithermus terrae for Synthesis of α-Arbutin Using Sucrose” (International Journal of Molecular Sciences, 2024)

Substrate: OC[C@H]1O[C@@](CO)(O[C@H]2O[C@H](CO)[C@@H](O)[C@H](O)[C@H]2O)[C@@H](O)[C@@H]1O
Experiment: DNS assay of released fructose, Lineweaver-Burk
Type: biochemical, Calidithermus terrae
Details: 42.0 °C

B1: (Calidithermus terrae) (protein)
chain: MFSTPLPAELRPLLERLLVQAESDLSGSDLETFSLRLERYLPDLHAGLAAVYPDVEGLLERLLPVLTAAHRARPAGLKRLDAHRLLAPDWFQRPEMIAYVAYTERFAGTLKGIEERLDYLEELGVRYLHLMPFLKPRPAPHDGGYAVMDYRAVREDLGSMDDLEALTAKLRARGIALCCDLVLNHVAQEHEWAVRARAGEARYQHYFHMFPDRTLPDEYEKTLPEVFPDFAPGNFTFDEASGKWVWTTFNRWQWDLNWANPAVFLEFADLILWLANRGVEVFRLDAIAFIWKRLGTNCQNQPEVHAITQALRAVARVVAPAVLFKAEAIVAPDDLIHYLGQGEHFGLVSDTAYHNSLMVQIWSSLASRDVRLMSEALRRFPVKPTNTAWNTYLRCHDDIGWAIADDDAARVGLSGEAHRRFLSDYYSGRFPTSPSRGLVFQENPRTGDRRISGSGASLAGLEQALEQNDPRQVHLSLERLLLGHAVVLGFGGIPLLYMGDELALLNDYSYLEEPEHAEDNRWVHRPHMDWDKAARAKADPASTEGRMYHGLLHLIRVRRATPHFHAAIEAQILEPRNPHVFGYVRRHPLGNLVALYNFSEEVQYYPAEVLWQQGLSLPHDRIGGQLVPIERHLVRLEPYARLWITDEV
Km: 89.39 mM | kcat: 86.3995 s⁻¹
